Numbering of substitutions follows the chain as printed.
Assays:
[1] = test system: mutated Rad30 PIP peptide; test: Yeast surface display of PCNA, PIP peptide binding by flow cytometry; conditions: peptide with the two conserved phenylalanines mutated to alanine
Protocol: (§1) Briefly, EBY100 transformed with plasmid pCTCON-PCNA were grown in SDCAA media to logarithmic phase and 2×10^6 of cells were washed, resuspended in SGCAA induction media, and grown at 20°C with shaking for an additional 18 h. Induced cells (1×10^6) were collected by centrifugation, washed with PBSF (PBS+ 1 g/L BSA), and incubated for 1 h at 25°C with mouse α-Myc antibodies (Santa Cruz Biotechnology, 1 µl/50 µl PBSF) and 100–400 µM of biotinylated PIP peptide (Peptron, see Figure S1 for peptide sequences). […] The labeled cells were washed, resuspended with PBSF, and analyzed by flow cytometry (FACS Calibur, BD).
(§2) Supplementary file pbio.1000507.s003.pdf: Figure S3 Yeast surface display of PCNA. […] Expression is detected through fluorescent antibody binding to the c-Myc epitope tag (light blue) while binding of the biotinylated PIP peptide (orange) is detected using fluorescently-labeled streptavidin (green). […] The specificity of PCNA binding for PIP peptides was detected following incubation with biotinylated PIP peptide derived from Rad30 (B and D) and mutated Rad30 in which the two conserved phenylalanine residues of the PIP peptide are mutated to alanine (C), followed by incubation with allophycocyanin (APC)-labeled streptavidin (y-axis). […]

Ung1 PIP peptide = test: SPR analysis of PCNA binding to PIP peptide; design: species or system yeast; conditions: PCNA immobilized, peptide 5-5,000 nM, ProteOn XPR36; read-out: Binding affinity for Ung1 PIP peptide (SPR)
Description: To quantify differences in binding affinities of the PCNA mutants relative to the WT, we characterized four PCNA mutants with increased affinity for PIP peptides derived from Rad30, Pol32, Msh6, and Ung1 partners using SPR. These mutants were overexpressed in E. coli, purified by affinity chromatography, and immobilized on an SPR sensor chip for binding characterization. SPR binding analysis enabled direct and sensitive measurement of interaction affinities relative to the Y2H system and indicated an up to 8-fold increase in binding affinity for the different PIP peptides, relative to WT PCNA (Table 1). Such analysis allowed the detection of a significant decrease in the Rad30 PIP peptide dissociation rate in the Pol30-Rad30E9p mutant relative to the WT, indicating a ∼9-fold increase in the lifetime of the PCNA-Rad30 complex (see Table 1). Collectively the ELISA, Y2H, and SPR assays validated and quantified the increase in mutant PCNA binding affinities, relative to WT PCNA.
Protein interaction assays were carried out using the ProteOn XPR36 (Bio-Rad) instrument. WT or PCNA mutants (0.4 to 5.2 fmol) were immobilized on the surface of a GLM sensor chip by a carbodiimide-activated succinimide-coupling method, as specified by the manufacturer. All SPR experiments were performed by flowing 150 µl of the target peptide at a flow rate of 30 µl/min onto the PCNA-bound chip. Different concentrations (5–5,000 nM) of PIP peptides (Table 1) were injected over the PCNA chip, and binding parameters were determined using ProteOn XPR36 software (Bio-Rad). The ligand (PCNA) and analyte (peptide) buffers were PBST and 150 mM NaCl, 1 mM EDTA, 0.01% Tween-80, 30 mM Hepes, pH 7.5, respectively.

Rad30 PIP peptide = test: Yeast surface display of PCNA, PIP peptide binding by flow cytometry; conditions: biotinylated peptide, APC-streptavidin, compared with WT PCNA / Rad30 PIP peptide
Protocol: as §1, §2

pol30-Rad27L1 = target: T1, pol30-Rad27L1 (yeast, UniProt P15873 1-258, IDCL DIDADFLKIEEL to D––VDILKIGEL); test: two-hybrid; quantitative Y2H: generation time of the YRG2 strains in liquid SC-Leu-Trp-His, given relative to cells expressing WT PCNA; average of at least 3 experiments; conditions: partners not purified
T1 construct: PCNA (POL30), yeast; two residues after the first aspartic acid of the IDCL are deleted; source: yeast two-hybrid fusion (pAD-GAL4, strain YRG2)
T1 sequence: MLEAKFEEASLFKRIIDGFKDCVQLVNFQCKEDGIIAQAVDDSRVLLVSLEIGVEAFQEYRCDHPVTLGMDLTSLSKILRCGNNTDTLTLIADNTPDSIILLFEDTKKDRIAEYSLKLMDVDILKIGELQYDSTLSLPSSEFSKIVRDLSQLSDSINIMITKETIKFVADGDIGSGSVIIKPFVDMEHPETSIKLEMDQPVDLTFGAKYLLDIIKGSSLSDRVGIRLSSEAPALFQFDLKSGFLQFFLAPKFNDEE

pol30-Rad27E31 = target: T2, pol30-Rad27E31 (yeast, UniProt P15873 1-258, IDCL DIDADFLKIEEL to DGDYDVLKIREL); test: as above; conditions: partners not purified
T2 construct: PCNA (POL30), yeast; source: yeast two-hybrid fusion (pAD-GAL4, strain YRG2)
T2 sequence: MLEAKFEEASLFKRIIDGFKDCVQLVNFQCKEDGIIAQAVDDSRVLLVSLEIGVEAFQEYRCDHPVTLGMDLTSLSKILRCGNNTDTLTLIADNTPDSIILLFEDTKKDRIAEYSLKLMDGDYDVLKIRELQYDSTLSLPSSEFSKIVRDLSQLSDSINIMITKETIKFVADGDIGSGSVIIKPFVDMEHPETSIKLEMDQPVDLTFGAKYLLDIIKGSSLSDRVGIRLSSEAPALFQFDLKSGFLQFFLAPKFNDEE

pol30-Rad27E6 = target: T3, pol30-Rad27E6 (yeast, UniProt P15873 1-258, IDCL DIDADFLKIEEL to DGDYDILKIREL); test: as above; conditions: partners not purified
T3 construct: PCNA (POL30), yeast; source: yeast two-hybrid fusion (pAD-GAL4, strain YRG2)
T3 sequence: T2 sequence with V125I

POL30: wild-type yeast PCNA (POL30), IDCL sequence DIDADFLKIEEL
binding to a mutated Rad30 PIP peptide (yeast surface display) [1]: dramatic reduction in binding affinity | Kd (Ung1 PIP peptide): 1200 nM

B1: pol30-79: previously studied PCNA mutant with decreased partner binding, IDCL sequence DIDADFAKAEEL (protein)
chain: T2 sequence with G121I, Y123A, V125F, L126A, I128A, R129E
modifications: left off: Gal4 activation domain, end not stated, kept
binding to the Rad30 PIP peptide (yeast surface display) (Rad30 PIP peptide): dramatic reduction in binding affinity

B2: Rad27 (natural protein, yeast, UniProt P26793 1-382, looked up)
chain: MGIKGLNAIISEHVPSAIRKSDIKSFFGRKVAIDASMSLYQFLIAVRQQDGGQLTNEAGETTSHLMGMFYRTLRMIDNGIKPCYVFDGKPPDLKSHELTKRSSRRVETEKKLAEATTELEKMKQERRLVKVSKEHNEEAQKLLGLMGIPYIIAPTEAEAQCAELAKKGKVYAAASEDMDTLCYRTPFLLRHLTFSEAKKEPIHEIDTELVLRGLDLTIEQFVDLCIMLGCDYCESIRGVGPVTALKLIKTHGSIEKIVEFIESGESNNTKWKIPEDWPYKQARMLFLDPEVIDGNEINLKWSPPKEKELIEYLCDDKKFSEERVKSGISRLKKGLKSGIQGRLDGFFQVVPKTKEQLAAAAKRAQENKKLNKNKNKVTKGRR
notes: Rad27 (endonuclease), yeast; also called pBD-Rad27; source: yeast two-hybrid fusion (pBD-GAL4, strain YRG2)
fold change in affinity relative to WT PCNA (Y2H generation time) (pol30-Rad27L1): 1.7 fold | fold change in affinity relative to WT PCNA (Y2H generation time) (pol30-Rad27E31): 1.5 fold | fold change in affinity relative to WT PCNA (Y2H generation time) (pol30-Rad27E6): 1.5 fold

— publication PMC2953525, “Subtle Alterations in PCNA-Partner Interactions Severely Impair DNA Replication and Repair” (PLoS Biology, 2010)
